Experiment [1] concerns the target T1, murine PD-1 (Sino biological) (murine, UniProt Q02242 25-167, limits assumed).
T1 sequence (looked up): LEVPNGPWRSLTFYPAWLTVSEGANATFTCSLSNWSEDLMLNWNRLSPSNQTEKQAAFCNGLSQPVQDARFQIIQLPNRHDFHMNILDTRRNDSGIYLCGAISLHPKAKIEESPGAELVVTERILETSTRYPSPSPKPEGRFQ
The experiment in a line: ELISA on plate-coated murine PD-1. The method, then:
3.3.1 Cross-reactivity to cynomolgus PD-1 and murine PD-1: Cross-reactivity was measured by ELISA. Plates (Nunc) were coated with cynomolgus PD-1 (Sino Biological) and murine PD-1 (Sino biological) at 1 μg/ml overnight at 4° C. After blocking and washing, […] antibodies were added to the plates and incubated at room temperature for 1 h. The plates were then washed and subsequently incubated with secondary antibody goat anti rat IgG1 HRP (Bethyl) and goat anti rat IgG2b HRP (Bethyl) for 45 min. After washing, TMB substrate was added and the interaction was stopped by 2M HCl. The absorbance at 450 nm was read using a microplate reader (Molecular Device).
In general terms: ELISA stands for enzyme-linked immunosorbent assay.

Experiment [2] deals with T2, human PD-1 expressed on cells (human, UniProt Q15116 25-288).
T2 construct: whole, on cells; also called PD-1 expressing CHO cell; PD-1 transfected CHO-S cells
T2 sequence (Q15116 25-288): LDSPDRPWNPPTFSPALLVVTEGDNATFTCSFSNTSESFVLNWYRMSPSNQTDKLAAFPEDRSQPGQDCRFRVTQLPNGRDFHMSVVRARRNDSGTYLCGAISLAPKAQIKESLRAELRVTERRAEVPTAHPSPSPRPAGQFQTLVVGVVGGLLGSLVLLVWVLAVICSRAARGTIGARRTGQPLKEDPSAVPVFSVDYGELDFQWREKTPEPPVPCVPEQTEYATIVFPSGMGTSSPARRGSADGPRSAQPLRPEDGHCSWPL
The experiment is described as follows: FACS on CHO-S cells expressing human PD-1. The method, then: (§1) 3.1 Binding affinity of PD-1 antibodies to cell surface PD-1 molecules tested by flow cytometry (FACS): Antibody binding affinity to cell surface PD-1 was performed by FACS analysis. CHO-S cells expressing human PD-1 were transferred in to 96-well U-bottom plates (BD) at a density of 5×10⁵ cells/ml. Tested antibodies were 1:2 serially diluted in wash buffer (1×PBS/1% BSA) and incubated with cells at 4° C. for 1 h. The secondary antibody goat anti-human IgG Fc FITC (3.0 moles FITC per mole IgG, (Jackson Immunoresearch Lab) was added and incubated at 4° C. in the dark for 1 h. The cells were then washed once and resuspended in 1×PBS/1% BSA, and analyzed by flow cytometery (BD). Fluorescence intensity will be converted to bound molecules/cell based on the quantitative beads Quantum™ MESF Kits, Bangs Laboratories, Inc.). KD was calculated using Graphpad Prism5.

Experiment [3] concerns the target T2, human PD-1 expressed on cells. The experiment is described as follows: FACS on CHO-S cells expressing human PD-1, antibody in 1xPBS pH 7.4. Here is the method: as §1
Experiment [4] shares this target. The experiment is described as follows: FACS on CHO-S cells expressing human PD-1, antibody in formulation buffer. The method, then:
as §1

In general, EC50 refers to the concentration that produces a half-maximal response.

B1: 1.139.15 hAb (antibody, V domains shown)
VH: QLQLQESGPGLVKPSETLSLTCTVSGGSISSTTYYWGWIRQPPGKGLEWIGSISYSGTTYYNPSLKSRVTIPVDTSKNQISLKLSSVTAADTSLYYCARHLGYNSNWYPFDYWGQGTLVTVSS
VL: QSALTQPPSVSGSPGQSVTISCTGTSSDVGSYNRVSWYQQPPGTAPEVIIYEVSNRPSGVPDRFSGSKSGNTASLTISGLQAEDEADYYCSSYTSSSTWVFGGGTKLTVL
notes: fully human monoclonal antibody with a human constant region of IgG4 isotype
In the case of B1, the binding result in experiment [1] was “no binding (tested: 1 g/ml antibodies (so in the source))”. In experiment [2], the EC50 is about 2 nM.

B2: 1.7.3 hAb (antibody, V domains shown)
VH: QLQLQESGPGLVKPSETLTLTCTVSGDSISSTTYYWVWIRQPPGKGLEWIGSISYSGNTYYNPSLKSRVTISVDTSKNHFSLKLSSVAATDTALYYCARHLGYNGRYLPFDYWGQGTLVTVSS
VL: QSALTQPASVSGSPGQSITISCTGTSSDVGFYNYVSWYQQHPGKAPELMIYDVTNRPSGVSDRFSGSKSGNTASLTISGLQAEDEADYYCSSYTSISTWVFGGGTKLTVL
notes: as for B1
In the case of B2, in experiment [1], the binding result is given as “no binding (tested: 1 g/ml antibodies (so in the source))”. For the same molecule, the concentration for a half-maximal effect (EC50) in experiment [2] was about 2 nM.

B3: 1.103.11-v2 hAb (antibody, IgG4, V domains shown)
VH: QLQLQESGPGLVKPSETLTLTCTVSADSISSTTYYWVWIRQPPGKGLEWIGSISYSGSTYYNPSLKSRVTVSVDTSKNQFSLKLNSVAATDTALYYCARHLGYNGRYLPFDYWGQGTLVTVSS
VL: QSALTQPASVSGSPGQSITISCTGTSSDVGFYNYVSWYQQHPGKAPELMIYDVSNRPSGVSDRFSGSKSGNTASLTISGLQAEDEADYYCSSYTSISTWVFGGGTKLTVL
notes: human constant region of IgG4 isotype
Take B3: the EC50 in experiment [3] is about 2.52 nM; in experiment [4], about 3.12 nM.

B4: 1.49.9 hAb (antibody, V domains shown)
VH: QLQLQESGPGLVKPSETLSLTCTVSGGSISSSTYYWGWIRQPPGKGLEWIGSISYSGSTYYNPSLKSRVTISVDTSKNQFSLKLSSVTDADTAVYYCARHLGYNGRYLPFDYWGQGTLVTVSS
VL: QSALTQPASVSGSPGQSITISCTGTSSDVGFYNYVSWYQQHPGKAPEVMIYDVSNRPSGVSDRFSGSKSGNTASLTISGLQAEDEADYYCSSYTSISTWVFGGGTKLTVL
notes: as for B1
B4: the binding result in experiment [1] is given as “no binding (tested: 1 g/ml antibodies (so in the source))”. Further, in experiment [2], the EC50 was about 2 nM.

B5: 1.153.7 hAb (antibody, V domains shown)
VH: EVQLLESGGGLVQPGGSLRLSCAASGFTFSSHAMSWVRQAPGKGLEWVSTITGGGGSIYYADSVKGRFTISRDNSKNTLYLQMNSLRAEDTAVYYCAKNRAGEGYFDYWGQGTLVTVSS
VL: SYELTQPLSVSVALGQTARITCGGDNIGNKDVHWYQQKPGQAPVLVIYRDSNRPSGIPEGFSGSNSGNTATLTISRAQAGDEADYYCQVWDSIWVFGGGTKLTVL
notes: as for B1
Consider B5, for which the binding result in experiment [1] is “no binding (tested: 1 g/ml antibodies (so in the source))”. In experiment [2], this molecule had a concentration giving a half-maximal response (EC50) of about 2 nM.
